Reference: patent US20180362604A1

Key:
Activin A = Activin A (UniProt P08476); test: cell-based or functional assay
Myostatin [1] = biological target: Myostatin (UniProt O14793); test: cell-based or functional assay
FcRn receptor [2] = test: SPR
Myostatin [3] = biological target: Myostatin (UniProt O14793); test: SPR
FcRn receptor [4] = test: FcRn binding, 'standard methods'
Myostatin [5] = biological target: Myostatin (UniProt O14793); test: SPR (BIAcore), anti-human Fc capture, myostatin as analyte

Sequence of FcRn receptor (P55899 24-297, chain 1 of 2): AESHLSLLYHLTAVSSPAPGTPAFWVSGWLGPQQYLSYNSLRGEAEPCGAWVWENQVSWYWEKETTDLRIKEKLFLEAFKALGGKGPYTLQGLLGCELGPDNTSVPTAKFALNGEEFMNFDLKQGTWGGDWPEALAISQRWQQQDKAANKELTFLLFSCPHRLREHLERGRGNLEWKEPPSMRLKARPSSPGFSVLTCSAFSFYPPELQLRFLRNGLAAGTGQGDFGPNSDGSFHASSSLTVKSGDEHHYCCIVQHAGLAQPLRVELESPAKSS
Sequence of FcRn receptor (P61769 21-119, chain 2 of 2, further chain): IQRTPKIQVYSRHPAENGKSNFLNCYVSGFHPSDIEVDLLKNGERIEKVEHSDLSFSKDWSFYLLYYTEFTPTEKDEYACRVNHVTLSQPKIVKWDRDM
Sequence of Myostatin (O14793 267-375 limits assumed): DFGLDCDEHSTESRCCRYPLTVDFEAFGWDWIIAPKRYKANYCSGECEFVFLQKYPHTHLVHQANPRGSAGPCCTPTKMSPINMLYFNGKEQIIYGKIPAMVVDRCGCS
Sequence of Activin A (P08476 311-426): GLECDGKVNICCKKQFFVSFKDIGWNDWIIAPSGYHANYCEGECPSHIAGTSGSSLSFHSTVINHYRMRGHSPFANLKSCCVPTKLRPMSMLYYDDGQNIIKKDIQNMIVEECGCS

Substance	Activin A IC50, cell-based assay for SMAD pathway (A204 luciferase reporter) (Activin A) [nM]	Myostatin IC50, cell-based assay for SMAD pathway (A204 luciferase reporter) (Myostatin [1]) [nM]	Kd (FcRn receptor [2]) [nM]	Kd (Myostatin [3]) [nM]	Kd (FcRn receptor [4]) [nM]	Kd (Myostatin [5]) [nM]
FS315K(81,82,84)E-hFcLALA (Fc fusion)	1	0.4				
FS315R78E/K(82,84)E-hFcLALA (Fc fusion)	0.6	0.5				
FS315ΔHBS-hFcLALA (Fc fusion)		0.4	48	0.0174	372	
monoFS315ΔHBS-hFcLALA (Fc fusion)					36.7	0.0033
